Results on one substance are retold here after article PMC5228590.

This test addresses vimentin (mouse (endogenous in MC-3T3 and in primary calvarial osteoblasts of C57/B6J mice)) (UniProt P20152). The experiment in a line: co-IP.

vimentin (mouse (endogenous in MC-3T3 and in primary calvarial osteoblasts of C57/B6J mice)), sequence (P20152 whole entry): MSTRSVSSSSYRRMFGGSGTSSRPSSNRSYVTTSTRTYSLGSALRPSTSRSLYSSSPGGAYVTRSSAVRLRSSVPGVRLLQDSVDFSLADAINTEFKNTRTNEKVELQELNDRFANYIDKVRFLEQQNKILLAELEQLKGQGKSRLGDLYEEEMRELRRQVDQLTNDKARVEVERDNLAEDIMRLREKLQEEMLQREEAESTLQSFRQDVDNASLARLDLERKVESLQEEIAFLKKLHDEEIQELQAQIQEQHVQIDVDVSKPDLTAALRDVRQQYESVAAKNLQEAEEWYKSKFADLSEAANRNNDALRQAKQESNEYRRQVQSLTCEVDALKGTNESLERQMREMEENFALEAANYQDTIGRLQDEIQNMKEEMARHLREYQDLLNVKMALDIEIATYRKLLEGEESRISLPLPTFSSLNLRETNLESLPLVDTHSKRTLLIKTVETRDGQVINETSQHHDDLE

For the substance “receptor protein tyrosine phosphatase β, B9EKR1 25-2312”, the fold increase of the association with IGF-I came to 6.7 fold and the percent reduction of the association with the PKCζ pseudosubstrate inhibitor was determined as 62%.
